The record followed here is the supplement of paper PMC6755084.

B1: F1*; the commonest letter at each place (parent)
chain: GAGACCGCAACTGAAAAGTTGTTATCACTTGTCGTAAGACACTTTGGATGGGTTGAAGTTCTGCACGTAGAAGCAAAAGGC

This data set covers variants of B1. As to the kind of experiment: fraction ligated after 30 min (ligated reads / total reads); higher = more ligase activity. As to conditions: with F1*sub RNA substrate (template-directed ligation), 42 °C. The gist of the method: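 Templates from an oligo pool were PCR-amplified, transcribed with T7 and gel-purified to give the ribozyme variants. Ligated and unligated products were separated on gel, reverse transcribed using barcoded primers, and read on a MiSeq. A quality filter of ≥20 was applied to core bases. Fraction ligated was taken as ligated reads as a share of all reads per variant.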
Turning to GAGACCGCAACTGAAAAGTTGTTATCACTTGTCGTAATACACTTTGGATCGGTTGAAGTTCTGCACGTAGAAGCAAAAGGC, the fraction ligated was determined as 0.134. To GAGACCGCAACTGAAAAGTTGTTATAACTTGTCATAAGACACTTTGGATGGGTTGAAGTTCTGCACGTAGAAGCAAAAGGC belongs 0.786; to GAGACCGCAACTGAAAAGTTGTTATCACTTATCGTAAGACACTTTGGATGGGTTTAAGTTCTGCACGTAGAAGCAAAAGGC, 0.767; to GAGACCGCAACTGAAAAGTTGTTATCACTTGTCGTATGACACTTTGGCTGGGTTGAAGTTCTGCACGTAGAAGCAAAAGGC, 0.763. To GAGACCGCAACTGAAAAGTTGTTATCCCTTGCCGTAAGACACTTTGGATGGGTTGAAGTTCTGCACGTAGAAGCAAAAGGC belongs 0.754. As for GAGACCGCAACTGAAAAGTTGTTATCACTTGTCGTAAGACACTATGGATGGGTTGACGTTCTGCACGTAGAAGCAAAAGGC, the fraction ligated came to 0.796.

Consider GAGACCGCAACTGAAAAGTTGTGATCACTTGTCGTAAGACAATTTGGATGGGTTGAAGTTCTGCACGTAGAAGCAAAAGGC, for which the fraction ligated was found to be 0.835. To GAGACCGCAACTGAAAAGTTGTAATCACTTGTCGTAAGACACTTTGGATGGGTTCAAGTTCTGCACGTAGAAGCAAAAGGC belongs 0.292. To GAGACCGCAACTGAAAAGTTGTTATGACTGGTCGTAAGACACTTTGGATGGGTTGAAGTTCTGCACGTAGAAGCAAAAGGC belongs 0.757; to GAGACCGCAACTGAAAAGTTGTTATCACTTGTCGTAAGACACTTTGGAGAGGTTGAAGTTCTGCACGTAGAAGCAAAAGGC, 0.388. To GAGACCGCAACTGAAAAGTTGTTCTCACTTGTCGTAAGACACTTTGGATGGGTTTAAGTTCTGCACGTAGAAGCAAAAGGC belongs 0.0793; to GAGACCGCAACTGAAAAGTTGTTATCTCTTGTCGTAAGGCACTTTGGATGGGTTGAAGTTCTGCACGTAGAAGCAAAAGGC, 0.84. As to GAGACCGCAACTGAAAAGTTGTTCTCACTTGTCGTTAGACACTTTGGATGGGTTGAAGTTCTGCACGTAGAAGCAAAAGGC, the fraction ligated turned out to be 0.767. To GAGACCGCAACTGAAAAGTTGTTATCACTTGTCGTAAGACGCTTGGGATGGGTTGAAGTTCTGCACGTAGAAGCAAAAGGC belongs 0.119; to GAGACCGCAACTGAAAAGTTGTTATCACTTGTCGTAAGACACTTCCGATGGGTTGAAGTTCTGCACGTAGAAGCAAAAGGC, 0.268. To GAGACCGCAACTGAAAAGTTGTTATCACTTGTCGTTAGCCACTTTGGATGGGTTGAAGTTCTGCACGTAGAAGCAAAAGGC belongs 0.821.

As to GAGACCGCAACTGAAAAGTTGTGATCACTTGTCGTAAGAGACTTTGGATGGGTTGAAGTTCTGCACGTAGAAGCAAAAGGC, the fraction ligated is 0.812.

As for GAGACCGCAACTGAAAAGTTGTTATCACTTGTCGTAAGACACTTTGGAGGGGTTGGAGTTCTGCACGTAGAAGCAAAAGGC, the fraction ligated was found to be 0.0888. To GAGACCGCAACTGAAAAGTTGTTATCACTTGTAGTAAGACGCTTTGGATGGGTTGAAGTTCTGCACGTAGAAGCAAAAGGC belongs 0.823; to GAGACCGCAACTGAAAAGTTGTTATCACTTGTCGTAAGACACTTAAGATGGGTTGAAGTTCTGCACGTAGAAGCAAAAGGC, 0.178; to GAGACCGCAACTGAAAAGTTGTTATCACTTGTCGTAAGACTCTTCGGATGGGTTGAAGTTCTGCACGTAGAAGCAAAAGGC, 0.428. To GAGACCGCAACTGAAAAGTTGTTATGACTTGTCGTAACACACTTTGGATGGGTTGAAGTTCTGCACGTAGAAGCAAAAGGC belongs 0.00552; to GAGACCGCAACTGAAAAGTTGTTATCACTTGTCGTAAGACACTATGGAGGGGTTGAAGTTCTGCACGTAGAAGCAAAAGGC, 0.785; to GAGACCGCAACTGAAAAGTTGTTATCACTTGTCCTAAGACACTTTGAATGGGTTGAAGTTCTGCACGTAGAAGCAAAAGGC, 0.774. To GAGACCGCAACTGAAAAGTTGTTATCACTTGTCGTAAGACCCTCTGGATGGGTTGAAGTTCTGCACGTAGAAGCAAAAGGC belongs 0.769; to GAGACCGCAACTGAAAAGTTGTTATCATTTGTCGTAAGACACTTAGGATGGGTTGAAGTTCTGCACGTAGAAGCAAAAGGC, 0.532; to GAGACCGCAACTGAAAAGTTGTAATCACTTGTCGTAAGACACTTTGGATCGGTTGAAGTTCTGCACGTAGAAGCAAAAGGC, 0.255.

Take GAGACCGCAACTGAAAAGTTGTTCTCACTTGTCGTAAGACACTTAGGATGGGTTGAAGTTCTGCACGTAGAAGCAAAAGGC: the fraction ligated stood at 0.152. To GAGACCGCAACTGAAAAGTTGTTATCACTTGTCGTGAGACACTTTCGATGGGTTGAAGTTCTGCACGTAGAAGCAAAAGGC belongs 0.803. To GAGACCGCAACTGAAAAGTTGTTATCACTTGTTGTAAGACACTTTGGATGGGTTGAAGTTCTGCACGTAGAAGCAAAAGGC belongs 0.869; to GAGACCGCAACTGAAAAGTTGTTATCACTTGTCCTCAGACACTTTGGATGGGTTGAAGTTCTGCACGTAGAAGCAAAAGGC, 0.834. To GAGACCGCAACTGAAAAGTTGTTAACACTTGTCGTAAGACACTTTTGATGGGTTGAAGTTCTGCACGTAGAAGCAAAAGGC belongs 0.0811; to GAGACCGCAACTGAAAAGTTGTTATCACTCGTCGTTAGACACTTTGGATGGGTTGAAGTTCTGCACGTAGAAGCAAAAGGC, 0.816; to GAGACCGCAACTGAAAAGTTGTTCTCACTTGTCGTAAGACAGTTTGGATGGGTTGAAGTTCTGCACGTAGAAGCAAAAGGC, 0.775.
